Assay results as given in patent publication US7067273B2, “Peptide substrates of a proteolytic ADAM33 polypeptide and assays using the same” (Schering Corporation, priority 2002, dated 2006).

Key:
[1] = biological target: T1, proteolytic ADAM33 polypeptide (Homo sapiens, UniProt Q9BZ11); experiment: Proteolytic activity assay: cleavage of peptide substrates by a proteolytic ADAM33 polypeptide (HPLC); type: biochemical; conditions: fold versus SEQ ID NO: 8
T1 construct: The presence of imidazole facilitated the separation of the prodomain from the catalytic domain; made in house; host or cells: Drosophila melanogaster S2 cells (pMT/Bip/V5-His-C, secreted)
T1 sequence (Q9BZ11 204-409): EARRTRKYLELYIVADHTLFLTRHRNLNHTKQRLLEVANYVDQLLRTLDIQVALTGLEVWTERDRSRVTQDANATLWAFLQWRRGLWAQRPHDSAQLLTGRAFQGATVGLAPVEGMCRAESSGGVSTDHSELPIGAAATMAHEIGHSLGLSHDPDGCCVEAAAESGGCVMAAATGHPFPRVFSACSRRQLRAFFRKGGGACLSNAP
Description: The proteolytic activity assay consists of a substrate, preferably at a micromolar to submicromolar concentration, and a proteolytic ADAM33 polypeptide, preferably at a submicromolar concentration, in a benign buffered solution at pH 7–9, more preferably around pH 7.5–8.0. This assay may be set-up to monitor proteolytic activity of a proteolytic ADAM33 polypeptide continuously over a time span of minutes to hours in a 96-well or 384-well format. Alternatively, this assay may be set up to allow an elapse of time span of minutes to hours before the proteolytic activity is quenched and analyzed following acidification to under pH 4 or addition of an excess amount of zinc chelators (e.g., EDTA).
For example, an ADAM33 substrate derived from amyloid percursor protein to assay the proteolytic activity of a proteolytic ADAM33 polypeptide. The cleavage site in the above-mentioned substrate is indicated by a hyphen (i.e., the cleavage site is the scissile bond being between the second histidine and the adjacent glutamine). One particular set of assay conditions contains 25 nM of the proteolytic ADAM33 polypeptide and 25 μM substrate. […] The rate of reaction is measured over a defined time period (e.g., for 1 hour at room temperature) and then stopped. Product formation can be quantified at 214 nm by HPLC using a reverse phase column to separate the substrate from the products. […]

[2] = biological target: T1, proteolytic ADAM33 polypeptide; experiment: FRET assay for inhibition of the proteolytic activity of a proteolytic ADAM33 polypeptide; type: biochemical
Protocol: A FRET assay may also be used to determine the cleavage of a compound by a proteolytic ADAM33 polypeptide. At room temperature, in a total reaction volume of 100 μL per well in a 96 well plate, add 50 μL of 2× Assay Buffer (40 mM HEPES, pH 7.5, 1.0 M NaCl; 1× Assay Buffer being 20 mM HEPES, pH 7.5, 0.5 M NaCl), followed by 25 μL of 100 μM substrate, e.g., SEQ ID NO: 14 (K(Dabcyl)YEVAHQKLAE(Edans)K-OH), and lastly 25 μL of 40 nM a proteolytic ADAM33 polypeptide in Enzyme Dilution Buffer 40 mM HEPES, pH 7.5. The reaction starts after the enzyme is added and is assayed at room temperature for 15–20 minutes by reading the relative fluorescence unit.
For High throughput screening, the FRET assay is performed similarly to that stated above, but with Assay Buffer that is also composed of 0.2 mg/ml BSA (1× Assay Buffer being 20 mM HEPES, pH 7.5, 0.5 M NaCl, 0.2 mg/ml BSA). In addition, the substrate used has a fluorescent donor and an acceptor at either end of the peptide, e.g., SEQ ID NO: 18 ((Cy5Q)WEVAH*QKLAC(Cy3B)K). Lastly, the reaction is incubated at room temperature for 3 hours and then stopped by adding 10 μL EDTA (11 mM). To measure the proteolytic activity of the proteolytic ADAM33 polypeptide on the substrate, the endpoint (relative fluorescence unit) is read using the appropriate excitation and emission wavelengths (e.g., for Cy5Q and Cy3B, 540 nm and 580 nm, respectively). […]

| cleavage rate relative to the 10-mer truncated form of APP28 (SEQ ID NO: 8) [1] | inhibition of the proteolytic activity of a proteolytic ADAM33 polypeptide (in words) [2] | Compound |
| --- | --- | --- |
| seventeen times greater | – | Ac-Tyr-Glu-Val-Ala-His-Gln-Lys-Leu-Val-Phe-NH2 (Ac-YEVAHQKLVF-NH2) [SEQ ID NO: 13, peptide substrate, code P5P5′, Ac-YEVAH*QKLVF-NH2] |
| – | identified as an inhibitor | CNC(=O)[C@@H](NC(=O)[C@H](CC(C)C)[C@H](O)C(=O)NO)C(C)(C)C [marimastat] |
